Source: patent publication US20190016826A1 (Genentech, published 2019)

Experiments:
[1] = molecular target: T1, K241A; assay: ELISA on plate-coated HuHtrA1_PD mutants (Example 7); column head on the sheet reads YW505.94 Fab, legend paragraph 70 says IgG94
T1 construct: also called HuHtrA1_PD(K241A)
Procedure: (§1) The mutants were expressed in E. coli and the trimers purified by size exclusion chromatography as described in Example 2. Binding was determined using an ELISA assay, which was conducted using a MAXISORP™ microtiter plate coated with HuHtrA1_PD mutants at 2 μg/ml in PBS for 1 h, followed by blocking with PBST buffer (0.5% BSA and 0.05% Tween 20 in PBS) for 1 h at room temperature. […] The plates were washed with PBT buffer (0.05% Tween 20 in PBS), and HRP-conjugated goat anti-human IgG (H+L) (Invitrogen) was added (1:5000 in PBST buffer) and incubated for 1 h. The plates were washed with PBT buffer and developed by adding tetramethylbenzidine substrate (Kirkegaard and Perry Laboratories, Gaithersburg, Md.). The absorbance at 450 nm was plotted as a function of antibody concentration in solution to determine EC₅₀ values.
(§2) In trypsin-like serine proteases these loops are known to be part of the specificity determining region that interacts with substrates.

[2] = molecular target: T2, D250A; assay: as above
T2 construct: also called HuHtrA1_PD(D250A)
Procedure: as §1, §2

[3] = molecular target: T3, D244A; assay: as above
T3 construct: also called HuHtrA1_PD(D244A)
Procedure: as §1, §2

[4] = molecular target: T4, HuHtrA1_PD(T223A) (human, UniProt F1N152 168-386 (bovine entry)); assay: as above
T4 construct: Alanine mutant of HuHtrA1_PD; also called HuHtrA1 mutant T223A; not shown: thrombin cleavage site
T4 chain: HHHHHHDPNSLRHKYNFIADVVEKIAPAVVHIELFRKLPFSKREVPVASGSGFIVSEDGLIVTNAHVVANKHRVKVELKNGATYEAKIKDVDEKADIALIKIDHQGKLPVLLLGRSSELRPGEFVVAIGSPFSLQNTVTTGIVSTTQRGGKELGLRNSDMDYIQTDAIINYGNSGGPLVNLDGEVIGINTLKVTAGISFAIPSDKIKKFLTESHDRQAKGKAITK
Procedure: as §1, §2

[5] = molecular target: T5, HuHtrA1_PD(E247A) (human, UniProt F1N152 168-386 (bovine entry)); assay: as above
T5 construct: Alanine mutant of HuHtrA1_PD; also called HuHtrA1 mutant E247A; not shown: thrombin cleavage site
T5 chain: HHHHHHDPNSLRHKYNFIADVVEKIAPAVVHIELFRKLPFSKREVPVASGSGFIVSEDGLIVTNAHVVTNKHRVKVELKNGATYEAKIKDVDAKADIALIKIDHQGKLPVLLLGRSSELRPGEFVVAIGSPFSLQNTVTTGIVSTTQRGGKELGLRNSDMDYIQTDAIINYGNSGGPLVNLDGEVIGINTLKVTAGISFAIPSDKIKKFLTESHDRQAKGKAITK
Procedure: as §1, §2

[6] = molecular target: T6, HuHtrA1_PD(K243A) (human, UniProt F1N152 168-386 (bovine entry)); assay: as above
T6 construct: Alanine mutant of HuHtrA1_PD; also called HuHtrA1 mutant K243A; not shown: thrombin cleavage site
T6 chain: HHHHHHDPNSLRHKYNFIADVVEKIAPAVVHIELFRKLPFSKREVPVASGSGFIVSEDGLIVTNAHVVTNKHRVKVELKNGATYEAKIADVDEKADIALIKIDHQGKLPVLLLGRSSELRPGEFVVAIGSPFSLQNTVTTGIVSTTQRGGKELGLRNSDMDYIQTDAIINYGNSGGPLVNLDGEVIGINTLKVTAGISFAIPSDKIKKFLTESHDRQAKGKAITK
Procedure: as §1, §2

[7] = molecular target: T7, Protease domain of human HtrA1 (HuHtrA1_PD), residues D161-K379 (human, UniProt F1N152 168-386 (bovine entry)); assay: SPR (BIAcore T100), single-cycle kinetics, biotinylated HuHtrA1_PD captured on streptavidin, Fab in solution
T7 construct: Expressed in E. coli; not shown: thrombin cleavage site between tag and D161
Procedure: Briefly, series S sensor chip CM5 was activated with EDC and NHS reagents according to the supplier's instructions, and streptavidin (Pierce) was coupled to achieve approximately 2000 response units (RU), followed by blocking unreacted groups with 1M ethanolamine.
The sensorgrams were recorded and evaluated by BIAcore™ T100 Evaluation Software (version 2.0) after subtraction of reference cell signal. Association rates (kₒₙ) and dissociation rates (koff) were calculated using a simple one-to-one Langmuir binding model. The equilibrium dissociation constant (KD) was calculated as the ratio […] (see Table 1 below).

B1: Fab94 (anti-HtrA1 antibody YW505.94, Fab format) (Fab, V domains shown)
VH: EVQLVESGGGLVQPGGSLRLSCAASGFNISGYYIHWVRQAPGKGLEWVGWIDPYGGDTNYADSVKGRFTISADTSKNTAYLQMNSLRAEDTAVYYCARGTFLTSWGHYFDYWGQGT
VL: DIQMTQSPSSLSASVGDRVTITCRASQDVSTAVAWYQQKPGKAPKLLIYSASFLYSGVPSRFSGSGSGTDFTLTISSLQPEDFATYYCQQSYTTPPTFGQGTKVEIKR
In the case of B1, the EC50 [1] is reported as 23 nM, the “Relative to WT EC50 Fold Decrease” value [1] is reported as 4.1 fold and the EC50 [2] is reported as 9.4 nM. The “Relative to WT EC50 Fold Decrease” value [2] was 1.7 fold, the EC50 [3] was 4.7 nM and the “Relative to WT EC50 Fold Decrease” value [3] was 0.8 fold. The EC50 [4] was 62.9 nM, the “Relative to WT EC50 Fold Decrease” value [4] was 11.2 fold and the EC50 [5] was 41.7 nM. For the same binder, the “Relative to WT EC50 Fold Decrease” value [5] was 7.4 fold, the EC50 [6] was 64.9 nM and the “Relative to WT EC50 Fold Decrease” value [6] was 11.6 fold. The Kd [7] was 31.1 nM, the koff [7] was 0.0109 s⁻¹ and the kon [7] was 350000 M⁻¹ s⁻¹.
